In publication PMC12473165 (2025):

Molecular target: LysdesArg9BK (Homo sapiens, 3H label on peptide)
Test: radioligand binding on HEK293 cells

B1: B1R (protein)
chain: MASSWPPLELQSSNQSQLFPQNATACDNAPEAWDLLHRVLPTFIISICFFGLLGNLFVLLVFLLPRRQLNVAEIYLANLAASDLVFVLGLPFWAENIWNQFNWPFGALLCRVINGVIKANLFISIFLVVAISQDRYRVLVHPMASRRQQRRRQARVTCVLIWVVGGLLSIPTFLLRSIQAVPDLNITACILLLPHEAWHFARIVELNILGFLLPLAAIVFFNYHILASLRTREEVSRTRCGGRKDSKTTALILTLVVAFLVCWAPYHFFAFLEFLFQVQAVRGCFWEDFIDLGLQLANFFAFTNSSLNPVIYVFVGRLFRTKVWELYKQCTPKSLAPISSSHRKEIFQLFWRN
B1 was tested, and the Kd was 1.3 nM.
